± gives the standard deviation.
Assay: protein stability index of a GFP-peptide fusion (GPS, HEK-293T) (PSI 1-6); higher = more stable
Conditions: c terminus: a fixed tail appended
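Further: 24-mer peptide tiles fused after GFP, lentivirally expressed, FACS-sorted into six equal bins by GFP/DsRed ratio, decoded by Illumina sequencing, PSI is the read-weighted mean bin number.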

Sequence | protein stability index (treatment: DMSO) | protein stability index (treatment: MLN4924 1 uM, 8 h)
ASLNHLDSHILLCLMGLAETPGCA [DCAF4] | 3.14 ± 0.58 | 2.82 ± 0.34
PRTNQWSPVVAMTSRRSGVGLAVV [KLHL20] | 2.47 ± 0.51 | 2.47 ± 0.33
NSSPRVMQRKQSLGKPDQKDLNEN [DLC1] | 5.09 ± 0.18 | 4.88 ± 0.28
EGAFGEHGSQGTYSNTKENGINGE [MAP2] | 5.19 ± 0.31 | 5.25 ± 0.17
PHEDHVFLVANFSQIETLTSVFQK [MATN2] | 2.25 ± 0.24 | 2.35 ± 0.16
LRTIPSPYPASKADIPSVAFSSRL [DCAF4] | 2.79 ± 0.34 | 2.94 ± 0.35
ALLALDENFDHNTLALILQIPTQN [PPFIA4] | 2.21 ± 0.47 | 2.17 ± 0.29
QQKLVIDTVTEVTARMEMLIEELY [CBY2] | 2.55 ± 0.26 | 2.7 ± 0.42
FLDILRRADKNDDGKLSFEEFKAY [NECAB1] | 2.83 ± 0.23 | 2.93 ± 0.34
PNIVVAIAGNKCDLIDVREVMERD [RAB22A] | 3.68 ± 0.14 | 3.68 ± 0.25
QLQPTFTPMRVALAGTFHYYSCER [NSDHL] | 2.18 ± 0.24 | 2.26 ± 0.044
TYRIRIEMSKDALPEKACQLDSRY [FBXO3] | 2.37 ± 0.12 | 2.57 ± 0.35
GLDGYRGYSLADWVCLAYFTSGFN [SPACA3] | 3.1 ± 1.2 | 2.81 ± 0.7
GHGEPDVLKDELQLYGDAPGEVVP [TMEM40] | 5.36 ± 0.07 | 5.35 ± 0.23
KHWVYVKRGGNCPAPAPLVPQDPD [ZBTB22] | 3.32 ± 0.48 | 3.56 ± 0.43
TLYRPEEGYCQAQAPIAAVLLMHM [TBC1D10A] | 2.52 ± 0.42 | 2.43 ± 0.45
MEVQHFRTIYHMFIAGLCVFIIST [SOAT2] | 2.95 ± 0.27 | 3.18 ± 0.52
RLQRKLVEPKHCFTSPDYQQQCHE [SDE2] | 3.67 ± 0.2 | 3.69 ± 0.2
EIARREKELEARVRKPAEAERYKL [FLOT1] | 4.4 ± 0.1 | 4.45 ± 0.22
RRASICCTQLGSLSALKHAVLGLY [SCARA5] | 2.44 ± 0.38 | 2.07 ± 0.28
VSVPENLPVGTQLLTVTATDRDEG [PCDHGA10] | 5.42 ± 0.38 | 5.27 ± 0.12
EKPYGCIDCGKAFSQKSCLVAHQR [ZNF649] | 2.81 ± 0.07 | 2.99 ± 0.28
SSQKKDTSSSTVVSTQRSQDHFHV [TIA1] | 4.66 ± 0.21 | 4.64 ± 0.25

Sequence | protein stability index (treatment: DMSO) | protein stability index (treatment: MLN4924 1 uM, 8 h)
FEFLYNALEFWRQEELTRINQSFT [IQUB] | 2.13 ± 0.54 | 2.45 ± 0.74
DLPKAKTRAADLLVNPLDPRNADK [SRPK2] | 4.85 ± 0.24 | 5 ± 0.29
LRRFVVRTMCAVLGLVARQEDSGL [AUP1] | 2.17 ± 0.71 | 1.91 ± 0.095
STSSSTQGDPAFPEMNGNGAVAPM [NOL4L] | 4.93 ± 0.34 | 5.05 ± 0.054
VHVFGDELSLVTLFRCIQNMPETL [TNFSF13B] | 2.5 ± 0.31 | 2.58 ± 0.58
NKDGIGEICLWGRHIFMGYLESET [ACSBG2] | 2.29 ± 0.46 | 2.02 ± 0.31
CQPRNLDKERAVLLQRRKRENMSD [KMT2E] | 4.32 ± 0.13 | 4.29 ± 0.12
VRLDRVRGGRQKYKRRIDAENSPY [ESRRG] | 3.81 ± 0.25 | 3.75 ± 0.052
IDFSPYLEPLGAPQAPAPATATDT [CEBPB] | 4.42 ± 0.31 | 4.35 ± 0.37
PQKTYSVKVLAFTSIGDGPLSSDI [PTPRD] | 2.17 ± 0.29 | 1.89 ± 0.3
YKVSAASSFFFSGVFVGVISFGQL [SLC22A15] | 3.24 ± 0.1 | 3.25 ± 1.5
GYLDYRKKAIKDLGISPSTCSFNP [GLT8D2] | 2.85 ± 0.22 | 2.89 ± 0.34
KAKRRNQEMQQKLVELSAENEKLH [CEBPD] | 4.97 ± 0.67 | 4.8 ± 0.097
EQLLVLVEWAKYIPAFCELPLDDQ [HNF4A] | 2.57 ± 0.78 | 2.46 ± 0.42
EEKSVKNTSIRVADFGSATFDHEH [CLK3] | 5.1 ± 0.11 | 5.07 ± 0.21
GNFQGIRFHYDRNPGTDAVAQTSL [FATE1] | 3.38 ± 0.22 | 3.42 ± 0.16
LDLFGVSMVVPLLSLHVKSLGASP [MFSD9] | 2.81 ± 0.62 | 3.02 ± 0.17
VVPEKLDDLVPKGKKFLLLSINRY [ALG2] | 2.07 ± 0.36 | 2.08 ± 0.42
KALQMLLSQPVTYQAFRECTLETT [BCL2L13] | 3.24 ± 0.35 | 2.79 ± 0.42
PPLREIILGPSSAYTQTQFHNLRN [NFE2L1] | 2.47 ± 0.15 | 2.65 ± 0.4
YPCIPNHELVWAKMKGFGFWPAKV [ZMYND11] | 3.09 ± 1.4 | 2.19 ± 0.3
HGLWDSLVYDVEVKSHLLDYVMTT [TRIP13] | 2.28 ± 0.32 | 2.2 ± 0.34
ASSVESTLPVLEASSWKKQVSHDF [FBXO34] | 3.56 ± 0.49 | 3.67 ± 0.62

Sequence | protein stability index (treatment: DMSO) | protein stability index (treatment: MLN4924 1 uM, 8 h)
LHCYRDRPHEVLLCSDLVKAYQRC [CHCHD6] | 2.16 ± 0.36 | 2.19 ± 0.24
SEEEKELYLNLALHLASDFFLKHP [PDS5B] | 2.19 ± 0.36 | 2.18 ± 0.36
QAGAARLEEELRQLKEEMARHLRE [PRPH] | 4.15 ± 0.37 | 4.63 ± 0.3
SHRPNMELCRDAAQFRLLSEVEEL [TEKT4] | 3.82 ± 0.3 | 3.72 ± 0.05
ELIRVEVEILDLNDNSPSFATPER [PCDHGC5] | 2.42 ± 0.26 | 2.43 ± 0.25
AAHPPLPLLPPAMGTEPAPSAPEA [TBX6] | 5.45 ± 0.24 | 5.52 ± 0.21
WMQVASLNEKRTFFHLSALKGYLY [KLHL13] | 2.76 ± 0.57 | 2.58 ± 0.36
TQRQYKEDESQSEEENDYRNLDAS [CEP70] | 5.41 ± 0.25 | 5.51 ± 0.6
LHAPPAFYSTSSGLANGLQLLCPW [VENTX] | 2.32 ± 0.1 | 2.27 ± 0.26
SRLTPGGKAAQAGVAVGDWVLSID [PDLIM7] | 2.63 ± 0.29 | 3.02 ± 0.61
SAVLFYVNMYVSIVFFGLISFDRY [P2RY14] | 3.04 ± 0.35 | 3.22 ± 0.36
RGVRRTASTPTPDDKLFQKLAKVY [CPN1] | 2.61 ± 0.29 | 2.86 ± 0.27
LPSRRDVYLSPRDDGYSTKDSYSS [RBMX] | 4.11 ± 0.13 | 3.99 ± 0.42
YSLASGAGGGGSKGNSLKRSKSIR [RAB40C] | 4.37 ± 0.17 | 4.41 ± 0.26
ARELQEALPEAPAPLLPHITATSL [BCL2L13] | 4.32 ± 0.4 | 4.32 ± 0.22
PAPALAPDQLPQNNTLVALPIVAI [FBXO28] | 2.91 ± 0.23 | 2.68 ± 0.33
AVGVLLLGLVGYYIFRVANHQKDL [DHCR7] | 2.84 ± 0.29 | 2.79 ± 0.53
MDLLTQSLGVDTLPPPDPNPPRAE [APBB1IP] | 4.85 ± 0.2 | 4.87 ± 0.14
KVYDDMAFRYLSWILFPLLGCYAV [CLPTM1] | 3.15 ± 0.23 | 3.07 ± 0.55
CEYETRLPGNHSTSQEIFRQRFRH [ZNF232] | 3.48 ± 0.25 | 3.4 ± 0.17
VAKLQESQPGNAVIDKETIDLLAF [SDE2] | 2.98 ± 0.48 | 3.29 ± 0.37
IESLNEELAYMKKNHEEEMKEFSN [KRT13] | 4.88 ± 0.38 | 5.06 ± 0.3
FHNLVSLNLNYNCISDELLENLCE [FBXO39] | 2.6 ± 0.18 | 2.66 ± 0.3

Sequence | protein stability index (treatment: DMSO) | protein stability index (treatment: MLN4924 1 uM, 8 h)
VYSWPKNKKNILLRLLREEEYVAP [TRAF3IP2] | 2.11 ± 0.68 | 2.5 ± 0.59
GNLGSLEKSVTKDAEGLAARDVQK [INTS4] | 5.46 ± 0.089 | 5.42 ± 0.12
SSSCAVHDLIFWRDVKKTGFVFGT [RTN3] | 2.71 ± 0.52 | 2.58 ± 0.52
PSTVGAEAQEEFLRVLGSMCQRLR [DFFB] | 2.28 ± 0.34 | 2.2 ± 0.32
QVKKTTTRWCHIVRDSDSLAESEF [PHTF1] | 3.44 ± 0.36 | 3.67 ± 0.25
VQKSIYSEFLKRFVEATRKWKVGI [ALDH8A1] | 2.75 ± 0.91 | 2.83 ± 0.54
IWAQGWVPAAGGPAPKRGYSSEMK [AUH] |  | 2.9 ± 0.29
LLRAKIEVEKLKAIRLRHDLPEYN [RAD54B] | 2.69 ± 0.43 | 2.75 ± 0.49
TTTRHKRTANPSKTIDLGAAAHYT [CLINT1] | 3.94 ± 0.2 | 4.06 ± 0.16
QKEQQERLREAAALGDIREVQKLV [ANKRD40] | 4.67 ± 0.25 | 4.74 ± 0.25
TPTPFFHTFAGDDCQAGLNFADED [WAS] | 4.86 ± 0.25 | 5 ± 0.07
TKEEGLALAREFSCPFFETSAAYR [RIT1] | 3.15 ± 0.29 | 3.13 ± 0.15
TVSSPIPYTPSPSSSRPISPGLSY [CCDC6] | 3.58 ± 0.1 | 3.61 ± 0.45
MLHHHCRRNPELQEELQIQAAVAA [ASB7] | 3.47 ± 0.29 | 3.59 ± 0.26
VFLNLHTLKFYCLPDNYEIIDSSL [USP39] | 3.08 ± 0.48 | 2.58 ± 0.33
IVHVEKEEVPEGMEEAAVASVVLP [BCL2L13] | 5.11 ± 0.16 | 5.07 ± 0.19
VVRLLLEHYRVQTQQTGTVRFDGY [FEM1B] | 2.62 ± 0.57 | 2.63 ± 0.58
QTDHIKGIRQITSDDFCTFQMVLE [GFOD1] | 2.69 ± 0.28 | 2.8 ± 0.25
EGAQLGENKPSTCSFSIERILGLD [HESX1] | 2.92 ± 0.18 | 3.11 ± 0.1
VLSILHATLPGIFMLLLIFFAFLH [SOAT2] | 2.87 ± 0.32 | 3.17 ± 0.41
QMNLLQKYSLLKLTALLEKYTPSN [DLC1] | 2.48 ± 0.55 | 2.41 ± 0.49

Reference: the supplement of paper PMC10567573
